The values below come from EP4170021A1.

The target of this assay is MCR-1 protein. Briefly: indirect ELISA, plate coated with MCR-1 protein at 0.2 ug/mL, purified antibody serially diluted. Particulars: scale: dilution factor.

Bounds are passed on as bounds.

B1: mouse anti-MCR-1 protein antibody 1BH8 (antibody, V domains shown)
VH: VQLQQSGPELVKPGASVKMSCRASGYTFTNYIMHWVKQKPGQGLDWIGYINPYNDGTKYNEKFKGKATLSSDKSSGTAYMDLSSLTSEDSAVYYCARGPYGNYAMDYWGQGTSVTVSS
VL: DVLMTQTPLSLPVSLGDQASISCRSSQNIVCSYGNPCLEWYLQKPGQSPKLLIYKVSNRFSGVPDRFSGSGSGTDFTLKISRVEAEDLGVYYCFQGSHVPWTFGGGTELEIKR
B1: the titer was > 1.28e+06.

B2: mouse anti-MCR-1 protein antibody 1BD9 (antibody, V domains shown)
VH: VKLQQSGPELVKPGASVKVSCKASGYAFTSCNMYWVKQSHGKSLEWIGYFDPYSGDAYYNQKFKDKATLTVDKSSSTAYMHLNSLTSEDSAVYYCASWLQLYYALDYWGQGTSVTVSA
VL: AIQMTQTPSSLSASLGDRVTISCRASQDISNYLNWYQQKPDGTVKLLIYYTSRLHSGVPSRFSGSGSGTDYSLNISNLEQEDFATYFCQQGDMIPDTFGGGTKLEIKR
Turning to B2, the titer is > 1.28e+06.
